The text below walks through data of patent publication US20260098080A1, “A MODIFIED PROTEIN SCAFFOLD AND USE THEREOF” (EVOLVERITAS BIOTECHNOLÓGIAI KORLÁTOLT FELELOSSÉGU TÁRSASÁG, priority 2022, published 2026).

Where no end group is shown, it is not given here.

Experiment [1] concerns the target T1, human MASP-2 (in normal human serum) (human, UniProt O00187 16-686). The experiment can be described thus: cell-based or functional assay.
Experiment [2] addresses rat MASP-2 (in rat serum) (rat, UniProt Q9JJS8 20-685). Nature of the experiment: cell-based or functional assay.
Experiment [3] deals with T2, human MASP-2cf CCP1-CCP2-SP (human, UniProt O00187 298-686, limits assumed).
T2 construct: domain: CCP1-CCP2-SP; also called human MASP-2 catalytic fragment
T2 sequence (O00187 298-686 limits assumed): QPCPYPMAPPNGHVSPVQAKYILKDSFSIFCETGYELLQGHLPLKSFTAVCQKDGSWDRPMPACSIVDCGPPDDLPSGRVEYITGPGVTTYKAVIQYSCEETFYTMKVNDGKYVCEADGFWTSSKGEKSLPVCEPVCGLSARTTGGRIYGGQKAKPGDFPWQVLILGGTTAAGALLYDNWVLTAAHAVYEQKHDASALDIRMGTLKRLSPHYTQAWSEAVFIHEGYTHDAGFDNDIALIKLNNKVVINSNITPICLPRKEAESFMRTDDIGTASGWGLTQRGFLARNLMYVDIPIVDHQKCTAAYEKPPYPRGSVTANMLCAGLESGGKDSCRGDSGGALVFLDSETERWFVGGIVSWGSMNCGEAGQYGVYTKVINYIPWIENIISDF
The experiment can be described thus: SPR, target immobilised.

The target in experiment [4] is T3, rat MASP-2cf CCP1-CCP2-SP (rat, UniProt Q9JJS8 298-685).
T3 construct: range 298-685; Mw 42309 Da; also called rat MASP-2 catalytic fragment
T3 sequence (Q9JJS8 other isoform, or with tags, fused parts or gaps limits assumed, form in doubt): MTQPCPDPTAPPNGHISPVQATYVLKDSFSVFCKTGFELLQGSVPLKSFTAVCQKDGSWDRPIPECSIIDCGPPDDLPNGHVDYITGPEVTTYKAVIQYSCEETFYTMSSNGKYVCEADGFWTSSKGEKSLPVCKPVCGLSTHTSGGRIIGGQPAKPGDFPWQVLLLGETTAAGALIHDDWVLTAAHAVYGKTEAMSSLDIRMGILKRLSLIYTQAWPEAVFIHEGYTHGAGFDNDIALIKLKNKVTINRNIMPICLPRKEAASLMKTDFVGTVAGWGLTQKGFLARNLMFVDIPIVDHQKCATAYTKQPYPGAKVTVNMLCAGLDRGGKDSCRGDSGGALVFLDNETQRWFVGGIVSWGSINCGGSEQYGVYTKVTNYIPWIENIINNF
The experiment can be described thus: SPR, target immobilised.

Experiment [5] deals with T1, human MASP-2 (in normal human serum). Nature of the experiment: cell-based or functional assay. This is another data set of the same source.

T1 sequence (O00187 16-686 limits assumed): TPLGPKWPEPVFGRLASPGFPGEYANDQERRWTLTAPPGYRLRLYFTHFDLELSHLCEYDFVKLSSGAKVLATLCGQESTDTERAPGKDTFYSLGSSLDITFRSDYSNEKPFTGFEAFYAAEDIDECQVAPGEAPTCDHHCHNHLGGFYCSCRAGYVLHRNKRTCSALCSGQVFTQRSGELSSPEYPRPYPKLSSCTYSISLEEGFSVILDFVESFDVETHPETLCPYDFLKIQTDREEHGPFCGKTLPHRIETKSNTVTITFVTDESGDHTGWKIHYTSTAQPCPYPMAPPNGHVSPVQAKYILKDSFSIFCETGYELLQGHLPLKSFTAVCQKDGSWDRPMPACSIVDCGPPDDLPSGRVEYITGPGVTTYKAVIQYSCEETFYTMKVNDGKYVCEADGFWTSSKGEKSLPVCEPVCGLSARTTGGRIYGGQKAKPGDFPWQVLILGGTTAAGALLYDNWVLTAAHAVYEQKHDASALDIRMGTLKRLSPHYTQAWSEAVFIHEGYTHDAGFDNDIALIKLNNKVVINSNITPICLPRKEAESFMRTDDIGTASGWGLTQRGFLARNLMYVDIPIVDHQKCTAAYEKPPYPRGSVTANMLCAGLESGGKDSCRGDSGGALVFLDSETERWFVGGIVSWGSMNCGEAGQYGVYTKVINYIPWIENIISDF
rat MASP-2 (in rat serum), sequence (Q9JJS8 20-685 limits assumed): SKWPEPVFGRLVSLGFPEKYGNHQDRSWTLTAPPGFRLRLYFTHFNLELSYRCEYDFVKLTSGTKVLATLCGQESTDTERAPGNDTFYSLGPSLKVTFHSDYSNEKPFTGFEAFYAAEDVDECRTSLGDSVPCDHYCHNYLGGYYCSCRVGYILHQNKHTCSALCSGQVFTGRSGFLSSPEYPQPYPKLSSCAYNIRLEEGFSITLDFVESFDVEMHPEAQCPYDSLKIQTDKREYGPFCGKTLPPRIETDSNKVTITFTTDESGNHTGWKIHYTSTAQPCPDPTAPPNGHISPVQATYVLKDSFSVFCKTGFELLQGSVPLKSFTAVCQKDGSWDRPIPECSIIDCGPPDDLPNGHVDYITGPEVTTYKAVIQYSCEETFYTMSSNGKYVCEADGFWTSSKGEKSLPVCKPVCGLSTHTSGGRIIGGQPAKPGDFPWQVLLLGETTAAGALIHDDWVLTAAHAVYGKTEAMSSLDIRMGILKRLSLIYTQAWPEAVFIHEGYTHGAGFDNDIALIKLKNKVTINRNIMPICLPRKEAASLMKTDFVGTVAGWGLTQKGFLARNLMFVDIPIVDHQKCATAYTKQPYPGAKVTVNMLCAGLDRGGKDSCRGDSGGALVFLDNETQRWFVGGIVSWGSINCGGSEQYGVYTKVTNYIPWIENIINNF

B1: EVO2a (designed binder)
chain: KPDFCFLENDPGPCRAVKRRYFYNNQTKQCERFKYGGCLGNMNNFETLEECKNICEDG
modifications: not fully specified; cysteine pairing not given here
notes: Modified TFPI-D2 Kunitz domain; made as m1
For the molecule B1, in experiment [1], the “IC50, lectin pathway C4 deposition, human serum” value (from here on “IC50 … human serum”) was determined as 215 nM and the “Relative potency, lectin pathway, human serum” value (shortened to “Relative potency … human serum”) was 0.6 fold vs EVO2. In experiment [2], the “IC50, lectin pathway C4 deposition, rat serum” value (from here on “IC50 … rat serum”) amounted to 213 nM and the “Relative potency, lectin pathway, rat serum” value (“Relative potency … rat serum” for short) is 0.5 fold vs EVO2. For the same molecule, in experiment [3], the equilibrium dissociation constant (Kd) amounted to 2.95 nM, the Relative affinity was 0.6 fold vs EVO2, the koff stood at 0.0021 s⁻¹ and the kon stood at 711000 M⁻¹ s⁻¹. Also, in experiment [4], the Kd came out at 4.73 nM, the Relative affinity amounted to 0.8 fold vs EVO2, the koff stood at 0.00151 s⁻¹ and the on-rate constant (kon) turned out to be 319000 M⁻¹ s⁻¹.

B2: EVO21b (designed binder)
chain: KPDFCFLEEDPGPCRALKRRYFYNNQTKQCERFGYGGCLGNMNNFVTLEECKNICEDG
modifications: not fully specified; cysteine pairing not given here
For the molecule B2, the “Relative potency (relative human lectin pathway inhibitory efficiency compared to EVO2)” value in experiment [5] is 32.1 fold relative to EVO2. In experiment [1], the “IC50 … human serum” value was determined as 4.3 nM and the “Relative potency … human serum” value was 31.9 fold vs EVO2. For the same molecule, in experiment [2], the “IC50 … rat serum” value came out at 7.2 nM and the “Relative potency … rat serum” value was found to be 14.7 fold vs EVO2.

B3: EVO23a (designed binder)
chain: KPDFCFLEEDPGPCRALKRRYFYNNQTKQCERFYYGGCFGNMNNFVTLEECKNICEDG
For the molecule B3, in experiment [5], the “Relative potency (relative human lectin pathway inhibitory efficiency compared to EVO2)” value was 43.1 fold relative to EVO2. Besides, in experiment [1], the “IC50 … human serum” value is 3.2 nM and the “Relative potency … human serum” value is 43 fold vs EVO2. Moreover, in experiment [2], the “IC50 … rat serum” value came to 14.1 nM and the “Relative potency … rat serum” value worked out at 7.5 fold vs EVO2.

B4: EVO21d (designed binder)
chain: KPDFCFLEEDPGPCRALKRRYFYNNQTKQCERFSYGGCFGNMNNFVTLEECKNICEDG
modifications: not fully specified; cysteine pairing not given here
Consider B4, for which, in experiment [1], the “IC50 … human serum” value was 8.3 nM and the “Relative potency … human serum” value worked out at 16.6 fold vs EVO2. Further, in experiment [2], the “IC50 … rat serum” value is 25.9 nM and the “Relative potency … rat serum” value worked out at 4.1 fold vs EVO2.

B5: EVO22b (designed binder)
chain: KPDFCFLENDPGPCRALARRYFYNNQTKQCERFYYGGCLGNMNNFVTLEECKNICEDG
modifications: not fully specified; cysteine pairing not given here
notes: as for B1
For B5, in experiment [1], the “IC50 … human serum” value came to 13.7 nM and the “Relative potency … human serum” value worked out at 10 fold vs EVO2. Also, in experiment [2], the “IC50 … rat serum” value was 9.7 nM and the “Relative potency … rat serum” value was found to be 11 fold vs EVO2. In experiment [3], the Kd turned out to be 0.21 nM, the Relative affinity turned out to be 8.5 fold vs EVO2, the koff was 0.00026 s⁻¹ and the on-rate constant (kon) is 1.24e+06 M⁻¹ s⁻¹. In experiment [4], this molecule returned a Kd of 0.163 nM, a Relative affinity of 22.3 fold vs EVO2, a koff of 0.000159 s⁻¹ and a kon of 975000 M⁻¹ s⁻¹.

B6: EVO215 (designed binder)
chain: KPDFCFLENDPGWCRAAKRRYFYNNQTKQCERFGYGGCLGNMNNFVTLEECKNICEDG
modifications: not fully specified; ends and bridges not checked
notes: as for B1
For the molecule B6, in experiment [1], the “IC50 … human serum” value amounted to 22.7 nM and the “Relative potency … human serum” value amounted to 6.1 fold vs EVO2. In experiment [3], this molecule had a Kd of 0.304 nM, a Relative affinity of 5.9 fold vs EVO2, a koff of 0.000559 s⁻¹ and a kon of 1.84e+06 M⁻¹ s⁻¹.

B7: EVO216 (designed binder)
chain: KPDFCFLENDPGWCRAAKLRYFYNNQTKQCERFGYGGCLGNMNNFVTLEECKNICEDG
modifications: not fully specified; cysteine pairing not given here
notes: as for B1
Turning to B7, in experiment [1], the “IC50 … human serum” value came to 30.9 nM and the “Relative potency … human serum” value was 4.5 fold vs EVO2. In experiment [3], this molecule gave a Kd of 0.76 nM, a Relative affinity of 2.4 fold vs EVO2, a dissociation rate constant (koff) of 0.000732 s⁻¹ and a kon of 963000 M⁻¹ s⁻¹.

B8: EVO2b (designed binder)
chain: KPDFCFLEEDPGPCRAVKRRYFYNNQTKQCERFGYGGCLGNMNNFETLEECKNICEDG
modifications: not fully specified; cysteine pairing not given here
notes: as for B1
B8: in experiment [1], the “IC50 … human serum” value was 62.7 nM and the “Relative potency … human serum” value is 2.2 fold vs EVO2. In addition, in experiment [2], the “IC50 … rat serum” value is 34.3 nM and the “Relative potency … rat serum” value came out at 3.1 fold vs EVO2. In experiment [3], the Kd was 1.97 nM, the Relative affinity is 0.9 fold vs EVO2, the koff was 0.00156 s⁻¹ and the kon was 790000 M⁻¹ s⁻¹. Moreover, in experiment [4], the Kd amounted to 1.95 nM, the Relative affinity came to 1.9 fold vs EVO2, the off-rate (koff) is 0.000942 s⁻¹ and the kon turned out to be 484000 M⁻¹ s⁻¹.

B9: EVO211 (designed binder)
chain: KPDFCFLENDPGWCRALKRRYFYNNQTKQCERFGYGGCLGNMNNFVTLEECKNICEDG
modifications: not fully specified; ends and bridges not checked
notes: as for B1
On to B9, for which, in experiment [1], the “IC50 … human serum” value is 3.1 nM and the “Relative potency … human serum” value was determined as 44 fold vs EVO2. In experiment [2], the “IC50 … rat serum” value was 53.2 nM and the “Relative potency … rat serum” value was 2 fold vs EVO2. Further, in experiment [3], the Kd turned out to be 0.043 nM, the Relative affinity was determined as 41.6 fold vs EVO2, the koff was found to be 6.62e-05 s⁻¹ and the kon amounted to 1.54e+06 M⁻¹ s⁻¹. In experiment [4], this molecule had a Kd of 2.87 nM, a Relative affinity of 1.3 fold vs EVO2, a koff of 0.0027 s⁻¹ and a kon of 942000 M⁻¹ s⁻¹.

B10: EVO212 (designed binder)
chain: KPDFCFLENDPGLCRALKRRYFYNNQTKQCERFGYGGCLGNMNNFVTLEECKNICEDG
modifications: not fully specified; ends and bridges not checked
notes: as for B1
B10: in experiment [1], the “IC50 … human serum” value was found to be 6.2 nM and the “Relative potency … human serum” value stood at 22.1 fold vs EVO2. In experiment [2], the “IC50 … rat serum” value was determined as 46.3 nM and the “Relative potency … rat serum” value amounted to 2.3 fold vs EVO2. Further, in experiment [3], the Kd came to 0.055 nM, the Relative affinity was found to be 32.7 fold vs EVO2, the koff was found to be 8.26e-05 s⁻¹ and the kon is 1.51e+06 M⁻¹ s⁻¹. Besides, in experiment [4], the affinity, expressed as Kd, was 1.26 nM; the Relative affinity was 2.9 fold vs EVO2; the koff is 0.000618 s⁻¹; the kon was 492000 M⁻¹ s⁻¹.

B11: EVO213 (designed binder)
chain: KPDFCFLENDPGPCRAAKRRYFYNNQTKQCERFGYGGCLGNMNNFVTLEECKNICEDG
notes: as for B1
As to B11, in experiment [1], the “IC50 … human serum” value came out at 28.3 nM and the “Relative potency … human serum” value worked out at 4.9 fold vs EVO2. Besides, in experiment [2], the “IC50 … rat serum” value stood at 88.7 nM and the “Relative potency … rat serum” value came to 1.2 fold vs EVO2. In experiment [3], this molecule came in with a Kd of 0.542 nM, a Relative affinity of 3.3 fold vs EVO2, a koff of 0.000524 s⁻¹ and an on-rate constant (kon) of 967000 M⁻¹ s⁻¹. In experiment [4], this molecule had a Kd of 3.81 nM, a Relative affinity of 1 fold vs EVO2, a koff of 0.00147 s⁻¹ and a kon of 386000 M⁻¹ s⁻¹.

B12: EVO22a (designed binder)
chain: KPDFCFLENDPGPCRAAKRRYFYNNQTKQCERFYYGGCLGNMNNFVTLEECKNICEDG
notes: as for B1
Turning to B12, in experiment [1], the “IC50 … human serum” value stood at 3.7 nM and the “Relative potency … human serum” value stood at 37.1 fold vs EVO2. Besides, in experiment [2], the “IC50 … rat serum” value worked out at 10.6 nM and the “Relative potency … rat serum” value amounted to 10 fold vs EVO2. In addition, in experiment [3], the Relative affinity stood at 40.1 fold vs EVO2, the dissociation rate constant (koff) turned out to be 9.09e-05 s⁻¹ and the kon was determined as 2.04e+06 M⁻¹ s⁻¹. In experiment [4], this molecule came in with an equilibrium dissociation constant (Kd) of 0.192 nM, a Relative affinity of 18.9 fold vs EVO2, a koff of 0.000163 s⁻¹ and a kon of 847000 M⁻¹ s⁻¹.

B13: EVO2d (designed binder)
chain: KPDFCFLEEDPGPCRALKRRYFYNNQTKQCERFKYGGCLGNMNNFETLEECKNICEDG
modifications: not fully specified; cysteine pairing not given here
notes: as for B1
For B13, in experiment [1], the “IC50 … human serum” value is 60.3 nM and the “Relative potency … human serum” value is 2.3 fold vs EVO2. Moreover, in experiment [2], the “IC50 … rat serum” value worked out at 70.9 nM and the “Relative potency … rat serum” value turned out to be 1.5 fold vs EVO2. Further, in experiment [3], the Kd turned out to be 1.19 nM, the Relative affinity was 1.5 fold vs EVO2, the koff turned out to be 0.00108 s⁻¹ and the kon came to 909000 M⁻¹ s⁻¹. For the same molecule, in experiment [4], the Kd was found to be 1.08 nM, the Relative affinity turned out to be 3.4 fold vs EVO2, the koff is 0.000438 s⁻¹ and the kon was 405000 M⁻¹ s⁻¹.

B14: EVO2c (designed binder)
chain: KPDFCFLEEDPGPCRAVKRRYFYNNQTKQCERFYYGGCLGNMNNFETLEECKNICEDG
modifications: not fully specified; cysteine pairing not given here
notes: as for B1
On to B14, for which, in experiment [1], the “IC50 … human serum” value is 22.3 nM and the “Relative potency … human serum” value was determined as 6.2 fold vs EVO2. Moreover, in experiment [2], the “IC50 … rat serum” value was found to be 34.3 nM and the “Relative potency … rat serum” value was determined as 3.1 fold vs EVO2. In experiment [3], this molecule registered a Kd of 1.04 nM, a Relative affinity of 1.7 fold vs EVO2, a koff of 0.00161 s⁻¹ and an association rate constant (kon) of 1.55e+06 M⁻¹ s⁻¹. Also, in experiment [4], the dissociation constant (Kd) was found to be 1.31 nM, the Relative affinity is 2.8 fold vs EVO2, the off-rate (koff) turned out to be 0.000978 s⁻¹ and the kon came out at 747000 M⁻¹ s⁻¹.
